B1: A4: alkaline phosphatase coupled to mono-functional IPDI-capped methoxy polyethylene oxide, NCO:NH2 14.9:1 (conjugate, UniProt P19111 20-506, looked up)
Intestinal-type alkaline …: LVPVEEEDPAFWNRQAAQALDVAKKLQPIQTAAKNVILFLGDGMGVPTVTATRILKGQMNGKLGPETPLAMDQFPYVALSKTYNVDRQVPDSAGTATAYLCGVKGNYRTIGVSAAARYNQCKTTRGNEVTSVMNRAKKAGKSVGVVTTTRVQHASPAGAYAHTVNRNWYSDADLPADAQMNGCQDIAAQLVNNMDIDVILGGGRKYMFPVGTPDPEYPDDASVNGVRKRKQNLVQAWQAKHQGAQYVWNRTALLQAADDSSVTHLMGLFEPADMKYNVQQDHTKDPTLQEMTEVALRVVSRNPRGFYLFVEGGRIDHGHHDDKAYMALTEAGMFDNAIAKANELTSELDTLILVTADHSHVFSFGGYTLRGTSIFGLAPSKALDSKSYTSILYGNGPGYALGGGSRPDVNDSTSEDPSYQQQAAVPQASETHGGEDVAVFARGPQAHLVHGVEEETFVAHIMAFAGCVEPYTDCNLPAPTTATSIPD
modifications: coupled to IPDI-capped methoxy PEG
B2: B2: alkaline phosphatase coupled to IPDI-capped diol TAKELACK P-24, NCO:NH2 2.7:1 (conjugate, UniProt P19111 20-506, looked up)
Intestinal-type alkaline …: B1 Intestinal-type alkaline …
modifications: coupled to IPDI-capped diol polymer
B3: B3: alkaline phosphatase coupled to IPDI-capped diol TAKELACK P-24, NCO:NH2 6.8:1 (conjugate, UniProt P19111 20-506, looked up)
Intestinal-type alkaline …: B1 Intestinal-type alkaline …
modifications: coupled to IPDI-capped diol polymer
B4: C2: alkaline phosphatase coupled to tri-functional Prepolymer A (high temperature), NCO:NH2 1.3:1 (conjugate, UniProt P19111 20-506, looked up)
Intestinal-type alkaline …: B1 Intestinal-type alkaline …
modifications: coupled to Prepolymer A
B5: C1: alkaline phosphatase coupled to tri-functional Prepolymer A (high temperature), NCO:NH2 0.7:1 (conjugate, UniProt P19111 20-506, looked up)
Intestinal-type alkaline …: B1 Intestinal-type alkaline …
modifications: coupled to Prepolymer A
B6: Example IX: calf intestine alkaline phosphatase conjugated with Prepolymer A (low temperature), 1 hour reaction (conjugate, UniProt P19111 20-506, looked up)
Intestinal-type alkaline …: B1 Intestinal-type alkaline …
modifications: conjugated with Prepolymer A

Key:
alkaline phosphatase [1] = molecular target: T1, alkaline phosphatase (Bos taurus, UniProt P19111); assay: Residual enzymatic activity of alkaline phosphatase after polymer modification (Example V, Table I); format: biochemical; conditions: for alk phos activity dA/dt: alkaline phosphatase reacted 1 hour with prepolymer at the listed NCO:protein NH2 ratio, quenched with TRIS, dialyzed; for alk phos activity % Remaining: relative to control without prepolymer, prepolymer at the listed NCO:protein NH2 ratio
Experimental: A constant amount of protein was treated with increasing amount of prepolymer and the residual activity was determined. For comparison with Prepolymer A (high temperature) prepolymers, two other isocyanate prepolymers were used. One is a 550 dalton mono methoxy polyethylene oxide end capped with IPDI; the second is a diol ([…] P-24) of molecular weight 2200 comprising 80% ethylene oxide and 20% propylene oxide, end capped with IPDI. Thus the 3+functionality of Prepolymer A is compared to mono- and di-functional isocyanate derivatives.
After one hour at ambient temperature the residual isocyanate was quenched by addition of 9 ml of 0.5 M TRIS, pH 9.0. The samples were then dialyzed vs. 0.05 M sodium borate, pH 9.0 at 4° C. using 7000 MWCO dialysis tubing. Samples of each were assayed for enzymatic activity then stored frozen.
Table 1 lists the relative amounts of protein amine and polymer isocyanate reacted, and the residual enzymatic activity remaining.

[2] = Circulatory half-life of radioiodinated peptide and conjugate after tail vein injection; set-up: species or system C57B1/6 mice; conditions: mouse, in vivo
Experimental: The conjugate from Example XIII was passed over a disposable Sephadex G25 column (PD10 from Pharmacia, Inc.) to separate free from polymer-bound peptide. Confirmation of the purity of the conjugate was obtained by HPLC. About 45 μg of conjugate (based on peptide) were radiolabeled with 125-iodine using the well known chloramine-T procedure. Free 125-iodine was separated from radiolabeled conjugate using a PD10 column. Of the original 30 μCi of Na^125 I used for the iodination, more than 23 μCi were incorporated into the conjugate.
Portions of the radiolabeled YRGDS-Prepolymer A conjugate from Example XIV were injected into the tail veins of C57B1/6 mice. As a control, YRGDS free peptide was radioiodinated by the procedure described in Example XIV and also injected. At various times blood was withdrawn from the animals and the amount of radioiodine remaining in the circulation determined using a gamma counter. A biphasic clearance curve (α:β) was obtained for both species. […] Thus by coupling the peptide to this polymer its clearance rate from the circulation is markedly extended.

alkaline phosphatase [3] = conditions: alkaline phosphatase 50 ng/well; rabbit antisera, day 35 test bleed; FIG. 1
Experimental: Antibody titers in the five rabbit sera from Example VI were determined by ELISA based on the following general procedure:
1) antigen is immobilized in 96-well PVC plates,
2) test antiserum is diluted with phosphate-TWEEN-chicken serum (PTCS) and incubated on the plate for 1 hour,
3) the plate is washed and Biotin-Protein A is added for 1 hour,
4) the plate is washed and glucose oxidase-avidin is added for 15 minutes.
5) the plate is washed and substrate (glucose+peroxidase+ABTS) is added. Absorbance at 405 nm is read at intervals on a plate reader.

alkaline phosphatase [4] = molecular target: T1, alkaline phosphatase; assay: Residual enzyme activity of alkaline phosphatase-Prepolymer A conjugates, p-nitrophenylphosphate as substrate (Examples IX, X); format: biochemical, calf; set-up: Alkaline Phosphatase from calf intestine, Type I, was obtained from Sigma; purchased Sigma Type I; host or cells: calf intestine (tissue-derived); conditions: after 1 hour at ambient temperature
Experimental: Alkaline Phosphatase from calf intestine, Type I, was obtained from Sigma. A 5 mg/ml solution was prepared in 0.01 M Tris, pH 8.0, containing 1mM CaCl2. To 0.2 ml of this enzyme solution was added 0.02 ml of a 50% (w/w) solution of Prepolymer A (low temperature) in acetonitrile. After 1 hour at ambient temperature the solution was assayed for residual enzyme activity and injected into an HPLC to evaluate the molecular size of the conjugate. […] Size analysis was performed by HPLC using a Zorbax GF250 column (DuPont) and a mobile phase consisting of 0.05 M sodium phosphate, pH 7.0, with 0.3 M NaCl at a flow rate of 0.5 ml/min.

| Molecule | alk phos activity dA/dt (alkaline phosphatase [1]) | alk phos activity % Remaining (alkaline phosphatase [1]) [%] | further results |
| --- | --- | --- | --- |
| alkaline phosphatase | 0.1200 | 100.0 |  |
| tyr-arg-gly-aspser [YRGDS free peptide] |  |  | half-life of the initial phase (t178 α) [2]: 30 s; label cleared in the initial phase [2]: about 75%; second phase half life (t1/2 β) [2]: 2 hours 40 minutes |
| B1 | 0.0313 | 26.1 |  |
| B2 | 0.0604 | 50.3 |  |
| B3 | 0.0389 | 32.4 |  |
| B4 | 0.0688 | 57.5 |  |
| B5 |  |  | binding of the antiserum raised against the antigen to immobilized alkaline phosphatase (immunogenicity) (alkaline phosphatase [3]): negligible binding |
| B6 |  |  | enzymatic activity remained after the reaction (alkaline phosphatase [4]): 54% |

From patent US5091176A, “Polymer-modified peptide drugs having enhanced biological and pharmacological activities” (W. R. Grace & Co.-Conn., priority 1990, dated 1992)
